Laboratory results taken from patent US6867179B1, “Methods of inducing hair growth and coloration” (Trustees of Boston University, priority 1994, dated 2005).

Biological target: T1, p75^NTR (Homo sapiens, UniProt P08138)
T1 sequence (P08138 29-427): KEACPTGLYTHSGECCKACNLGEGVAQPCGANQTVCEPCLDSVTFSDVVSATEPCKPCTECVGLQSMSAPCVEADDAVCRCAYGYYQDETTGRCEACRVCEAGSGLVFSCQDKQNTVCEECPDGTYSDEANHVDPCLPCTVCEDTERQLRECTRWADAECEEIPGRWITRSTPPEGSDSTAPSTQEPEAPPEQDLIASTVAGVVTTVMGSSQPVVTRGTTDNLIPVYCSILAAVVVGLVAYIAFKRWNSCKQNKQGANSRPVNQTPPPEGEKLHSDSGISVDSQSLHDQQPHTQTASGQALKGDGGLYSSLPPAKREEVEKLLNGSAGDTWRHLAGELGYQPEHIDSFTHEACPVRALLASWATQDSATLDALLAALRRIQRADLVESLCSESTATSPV
Test: Competition for 125I beta-amyloid 1-40 binding to p75NTR-NIH 3T3 cells
Design: expressed in transfected cells; host or cells: NIH 3T3 fibroblasts (p75^NTR NIH 3T3 cells, Dobrowsky et al. 1994)
Experimental: p75^NTR-NIH 3T3 cells were maintain in DMEM supplemented with 10% FBS in the presence of penicillin (45 ng/ml), streptomycin (68 ng/ml), and hygromycin B (17.5 ng/ml). […] After incubation, 1 mM of disuccinimidyl suberate was added for 30 minutes. Following centrifugation cells were lysed with RIPA buffer (50 mM Tris HCl, pH 8.0, […] NaCl 0.5% sodium deoxycholate 4, 5 mM MgCl2, 1% Triton x-100, 1 mM phenylmethylsulfonylfluoride [PMSF], and 1 microg/ml aprotinin), sonicated for 1-3 seconds and immunoprecipitated with anti p75^NTR antibodies (mouse monoclonal IgG1, Cedarlane Laboratories Ltd., Ontario, Canada) or mouse IgG as control for 16 hours at […] in the presence of 15 microl of protein G plus protein A agarose and 1M NaCl adjusted to pH 8.0. After several washes with 20 mM Tris HCl, pH 8.0, 1M NaCl, 5 mM MgCl2, 0.2% Triton X-100 and 1 mM PMSF, immunoprecipitates were separated over 8% PAGE and subjected to autoradiography. A band of 75-80 kD molecular weight was present only in lysates inmmunoprecipitated with anti p75^NTR antibodies and not lysates inmmunoprecipitated with irrelevant mouse IgG.
p75^NTR-NIH 3T3 cells were incubated for 2 hours at […] in binding medium (DMEM, 10 mM hepes, 0.1 mg/ml cytochrome C, 0.01% Tween 80, 1 mg/ml BSA) with ^125I beta-amyloid 1-40 and increasing concentrations of NGF (0-100 ng/ml). […]

“NGF: nerve growth factor, neurotrophin ligand of p75 NGF-R and trk” was tested, and the “Competition with beta-amyloid for p75NTR binding” value was “could be competed off by NGF” and the “Maximum inhibition of 125I beta-amyloid binding” value (NGF 100 ng/ml, 2 hours) was 38%.
